This experiment addresses Channelrhodopsin-2 (D156C) (Chlamydomonas reinhardtii) (UniProt Q8RUT8). In words: SDS-PAGE; Coomassie-stained SDS-PAGE of SEC-purified fractions (elution volumes 11 to 15 mL); dimer partially SDS-resistant.

Broadly, the stoichiometry N is the number of molecules, sites or subunits per partner or assembly. “Channelrhodopsin-2 (D156C) (from UniProt Q8RUT8 1-737) (natural protein)” came in with a stoichiometry N of 2.

The values are drawn from paper PMC8909857.
